These results are taken from patent US20220233638A1 (WASEDA UNIVERSITY, published 2022).

The Kd is the constant that tells how readily two partners part at equilibrium. High values mean a looser complex, low ones a tighter complex.

The experiment deals with T1, GST-DLA88-α3 (dog, UniProt P18466 207-299).
T1 construct: also called recombinant protein containing only α3 domain of DLA88; not shown: glutathione S-transferase (GST) tag of expression vector pGEX-6p-1
The experiment in a line: biolayer interferometry (BLItz); GST-DLA88-α3 immobilised on anti-GST sensor, GST-LILRB3 D1/D2 loaded as sample. The method, then:
The recombinant proteins DLA88-α3 and LILRB3-D1/D2 used in (b) were separately incubated at 37° C. for 2 hr, and immobilized on the BLI sensor for 5 min using DLA88-α3 as a ligand. LILRB3-D1/2D was loaded as a sample at the indicated concentrations.
BLItz™ ([…]) was used to analyze the dynamics between DLA88-α3 and LILRB3-D1/D2. A GST sensor and an anti-GST antibody-immobilized sensor ([…]) were used. GST-DLA88-α3 and GST-LILRB3-D1/D2 were separately incubated at 37° C. for 2 hr. GST-DLA88-α3 was immobilized on the GST sensor as a ligand molecule for 5 min and completely covered with the GST sensor. After washing with PBS-T (5% Tween-PBS) for 30 sec, GST-LILRB3 D1/D2 was loaded as a sample while trembling for 2 min. In addition to association kinetics, dissociation kinetics was evaluated in PBS-T buffer for 2 min. The recombinant protein GST-GFP was used as a control.
(In general: Biolayer interferometry detects binding as a change in optical thickness at a sensor tip.)

T1 sequence (P18466 other isoform, or with tags, fused parts or gaps): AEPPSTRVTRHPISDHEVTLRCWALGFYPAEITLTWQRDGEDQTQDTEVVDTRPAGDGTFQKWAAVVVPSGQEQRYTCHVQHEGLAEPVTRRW

B1: GST-LILRB3-D1/D2 (receptor)
chain: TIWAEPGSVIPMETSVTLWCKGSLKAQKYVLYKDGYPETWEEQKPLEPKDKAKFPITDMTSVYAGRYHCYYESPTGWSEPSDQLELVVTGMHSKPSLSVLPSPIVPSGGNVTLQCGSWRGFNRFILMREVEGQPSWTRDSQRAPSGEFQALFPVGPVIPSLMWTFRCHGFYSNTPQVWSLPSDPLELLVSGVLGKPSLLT
notes: also called LILRB3-D1/2D; not shown: glutathione S-transferase (GST) tag of expression vector pGEX-6p-1
B1: the Kd amounted to 6.54 µM.
